Assay results reported in patent US20240092922A1 (EUCURE BEIJING BIOPHARMA, published 2024).

T1: monkey (Rhesus macaque) 4-1BB (r4-1BB) on transfected CHO cells (monkey (Rhesus macaque), UniProt Q07011 24-255 (human entry))
T1 construct: also called rm4-1BB; CHO-r4-1BB
T1 chain: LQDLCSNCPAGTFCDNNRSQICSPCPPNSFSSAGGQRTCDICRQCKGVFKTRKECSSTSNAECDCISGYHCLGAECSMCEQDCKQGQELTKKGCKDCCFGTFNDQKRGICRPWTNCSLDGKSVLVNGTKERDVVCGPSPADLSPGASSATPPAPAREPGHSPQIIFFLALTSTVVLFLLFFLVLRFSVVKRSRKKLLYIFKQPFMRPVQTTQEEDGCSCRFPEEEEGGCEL


Tests used:
[1] = target: T2, mouse 4-1BB (m4-1BB) on transfected CHO cells (mouse, UniProt P20334 24-256); assay: flow cytometry on CHO cells transfected with mouse 4-1BB
T2 construct: also called CHO-m4-1BB
Procedure: (§1) 25 μl CHO cells were added to each well. 25 μl purified anti-h4-1BB antibodies (1 μg/ml) were added to each well and were incubated at 4° C. for 30 minutes.
(§2) After being washed with PBS (1200 rmp, 5 min) twice, 50 μl of FITC labeled anti-mouse IgG Fc antibody (anti-mIgG Fc-FITC) was added into each well at 1:100 dilution, followed by incubating at 4° C. for 30 minutes, and then PBS wash (1200 rmp, 5 min). In some cases, PE labeled anti-mouse IgG Fc antibody (anti-mIgG Fc-PE) was used to label the antibody instead, and was added into each tested well at 1:500 dilution. The signals for FITC and PE were determined by flow cytometry.

[2] = target: T1, monkey (Rhesus macaque) 4-1BB (r4-1BB) …; assay: flow cytometry on transfected CHO cells;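 note: antibodies tested at 1 µg/ml on CHO cells for 30 min at 4 °C, binding detected with FITC- or PE-labeled anti-mouse IgG Fc secondary by flow cytometry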
Procedure: as §1, §2

[3] = target: T3, chimeric (mouse and human) 4-1BB (c4-1BB) on transfected CHO cells (chimeric (mouse and human)); assay: flow cytometry on transfected CHO cells;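 note: antibodies tested at 1 µg/ml on CHO cells for 30 min at 4 °C, binding detected with FITC- or PE-labeled anti-mouse IgG Fc secondary by flow cytometry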
T3 construct: also called chi4-1BB; CHO-c4-1BB
Procedure: as §1, §2

[4] = target: T4, human 4-1BB (h4-1BB) on transiently transfected CHO cells (human, UniProt Q07011 24-255); assay: flow cytometry, CHO cells transfected with human 4-1BB, antibody at 0.01 µg/ml
T4 construct: also called TNFRSF9; CD137
Procedure: (§3) 25 μl CHO cells transiently transfected with human 4-1BB were added to each well in a plate. The purified antibodies were titrated to final concentrations of 10, 1, 0.1, 0.01, 0.001 μg/ml. The titrated antibodies were added to each well at 4° C. and incubated for 30 minutes.
(§4) After being washed with phosphate-buffered saline (PBS) (1200 rpm, 5 minutes) twice, 50 μl of FITC labeled anti-mouse IgG Fc antibody (anti-mIgG Fc-FITC) at 1:100 dilution was added into each well, and incubated for 30 minutes at 4° C., followed by PBS wash (1200 rpm, 5 minutes). The signal for FITC was detected by flow cytometry.

[5] = target: T4, human 4-1BB (h4-1BB) on transiently …; assay: flow cytometry, CHO cells transfected with human 4-1BB, antibody at 10 µg/ml
Procedure: as §3, §4

[6] = target: T4, human 4-1BB (h4-1BB) on transiently …; assay: flow cytometry, CHO cells transfected with human 4-1BB, antibody at 0.1 µg/ml
Procedure: as §3, §4

[7] = target: T4, human 4-1BB (h4-1BB) on transiently …; assay: flow cytometry, CHO cells transfected with human 4-1BB, antibody at 1 µg/ml
Procedure: as §3, §4

[8] = target: T4, human 4-1BB (h4-1BB) on transiently …; assay: flow cytometry, CHO cells transfected with human 4-1BB, antibody at 0.001 µg/ml
Procedure: as §3, §4

[9] = target: T2, mouse 4-1BB (m4-1BB) on transfected CHO …; assay: flow cytometry on CHO-m4-1BB cells, anti-mouse-IgG-Fc-FITC (1:100)
Procedure: as §1, §2

| Binder | binding result [1] | binding result [2] | binding result [3] | percentage of cells with FITC signal [4] | percentage of cells with FITC signal [5] | percentage of cells with FITC signal [6] | percentage of cells with FITC signal [7] | percentage of cells with FITC signal [8] | binding result [9] |
| --- | --- | --- | --- | --- | --- | --- | --- | --- | --- |
| 69-3C2 (antibody, V domains shown, mouse antibody purified from ascites) VH: DVQLVESGGGLVQPGGSRKLSCAASGFSFSSFGMHWMRQAPEKGLEWVAYISSGSSAIYYADTVKGRFTISRDNPKNTLFLQMTSLRSEDTAMYYCARDWVDYWGQGTTLTVSS VL: DIQMTQSPASLSVSVGETVTITCRASENIYSNLVWYQQKQGKSPQLLVYTATKLTNGVPSRFSGSGSGTQYSLKINSLQSEDFGTYYCQHFWDTPYTFGGGTKLEMK | no binding (tested: 1 µg/ml) | binds | binds | 26.2% | 58.5% | 52.3% | 62.9% | 0.183% |  |
| 45-7G9 (antibody, V domains shown, mouse antibody purified from ascites) VH: QVQLQQPGSALVRPGASVKLSCKASGYTFSNYWIHWVKQRHGQGLEWIGNIYPASDYTNYDEKFKNKGTLTVDTSSSTAYMHLSSLTSEDSAVYYCSRGYFGSLDYWGQGTSVTVSA VL: DILLTQSPAILSVNPGERVSFSCRASQPIGTGIHWYQQRTNGSPRLLIKSASESISGIPSRFSGSGSGTDFTLTINNVESDDVGDYYCQQSYSWPTTFGGGTKLKIN | no binding (tested: 1 µg/ml) | binds | binds | 0.96% | 57.9% | 25.9% | 55.1% | 1% |  |
| 55-8F6 (antibody, V domains shown, mouse antibody purified from ascites) VH: QVQLQQPGAELVRPGASVKLSCKASGYIFTSYWINWVKQRPGQGLEWIGNIYPSDSYTNYNQKFKDKATLTVDKSSSTAYMQLSSPTSEDSAVYYCTRFHYGSSPFDNWGQGTTLTVSS VL: DIQMTQSTSSLSASLGDRVTISCRASQDISHYLNWYQQKPDGTVKLLIYYTSRLHSGVPSRFSGSGSGTDYSLTISNLEQEDFATYFCQQGHTLPRTFGGGTKLEIK | no binding (tested: 1 µg/ml) | binds | binds | 0.571% | 53.6% | 36.1% | 52.3% | 0.375% |  |
| 61-6A7 (antibody, V domains shown, mouse antibody purified from ascites) VH: EVQLQQSGAELVRPGALVKLSCKASGFNIKDYYMHWVKRRPEQGLEWIGWIDPENGNTIYDPKFQDKASITADTSSNTAYLQLSSLTSEDTAVYYCAEGLPWYFDYWGQGTTLTVSS VL: QIILTQSPALMSASPGEKVTMTCSASSSVSDMNWYQQKPRSSPTPWIYLTSNLSSGVPDRFSGSGSGTSYSLTISSMEAEDAATYYCQQWSGNPLTFGAGTRLELK | no binding (tested: 1 µg/ml) | binds | binds | 17% | 63% | 51.1% | 60.1% | 3.43% |  |
| 70-6F10 (antibody, V domains shown, mouse antibody purified from ascites) VH: QVQLQQSGPELVKPGASVKISCKASGYAFNNSWMNWVKQRPGQGLEWIGRIYPGDGDTDYNGKFKGKATLTADKSSSTAYMQLSSLTSVDSAVYFCARLDGNYYYWYFDVWGAGTTVTVSS VL: not shown | no binding (tested: 1 µg/ml) | binds | binds | 0.913% | 52.9% | 1.14% | 23.7% | 0.962% |  |

Second part, the binder after the results:

| binding result [1] | binding result [2] | binding result [3] | percentage of cells with FITC signal [4] | percentage of cells with FITC signal [5] | percentage of cells with FITC signal [6] | percentage of cells with FITC signal [7] | percentage of cells with FITC signal [8] | binding result [9] | Binder |
| --- | --- | --- | --- | --- | --- | --- | --- | --- | --- |
| no binding (tested: 1 µg/ml) | binds | binds | 9.06% | 58.9% | 49.8% | 60.1% | 1.52% |  | 45-8E2 (antibody, V domains shown, mouse antibody purified from ascites) VH: EVKLLESGGGLVQPGGSLKLSCAASGFDFSRYWMSWVRQAPGKGLEWIGEIHPDSSAINYTPSLKDKFIISRDNAKNTLYLQMSKVRSEDTALYYCARSYYGRVFDYWGQGTTLTVSS VL: DIVMTQSPATLSVTPGDRVSLSCRASQSISDYLHWYQQKSHESPRLLIKYASQSISGIPPRFSGSGSGSDFTLSINSVEPEDVGMYYCQDGHSFPPTFGAGTKLELK |
| no binding (tested: 1 µg/ml) | binds | binds | 3.37% | 56.7% | 9.06% | 56.4% | 1.25% |  | 70-3F9 (antibody, V domains shown, mouse antibody purified from ascites) VH: QVQLQQPGAELVRPGASVKLSCKASGYTFTSYWINWVKQRPGQGLEWIGNIFPSDSYTNYNQKFKDRAKLTVDKSSSTAYMQLSSPTSEDSAVYYCTRFGSSGYPDYYTMEYWGQGTSVTVSS VL: DIQMTQSPASLSASVGETVTITCRASGNIDNYLAWYQQKQGKSPQLLVYNAKTLAEGVPSRFSGSGSGTEYSLKINSLQPEDFGSYHCQQYWTIPYTFGGGTKLEIK |
| no binding (tested: 1 µg/ml) | binds | binds | 0.445% | 49.8% | 16.5% | 45% | 0.111% |  | 54-8B11 (antibody, V domains shown, mouse antibody purified from ascites) VH: QIQLVQSGPELKKPGETVKISCKASKFTFTNYGMNWVKQAPGKALKWMGWINTYTGEPTYADDFKGRFDFSLETSATTAYLQINNLKNEDTATYFCARREYYPWVFVYWGQGTLVTVSA VL: ENVLTQSPAIMSASPGEKVTMTCSASSSVSYMHWYQQKSSTSPKLWIYDTSKLASGVPGRFSGSGSGNSYSLTISSMEAEDVATYYCFQGSGYPLTFGGGTKLEIK |
|  |  |  | 6.61% | 69.1% | 49.7% | 69% | 0.316% | no binding (tested: 1 µg/ml) | 16-1C4 (antibody, V domains shown, mouse antibody purified from ascites) VH: QGQMQQSGAELVKPGASVKLSCKTSGFTFSSSYINWLKQKPGQSLEWIAWIFAGTGGTYYNQKFTGKAQLTVDTSSGTAYMQFSSLTTEDSAIYYCARHSPRATLFDFWGQGTTLTVSS VL: QIVLSQSPAILSASPGEKVTMTCRASSSVNHMHWYQQRTGFSPKAWIYATSNLASGVPARFSGSGSGTSYSLTISRVEAEDAATYYCQQWSSNPYTFGGGTKLEIK |
|  |  |  | 0.72% | 68.9% | 25.3% | 56.2% | 0.802% | no binding (tested: 1 µg/ml) | 30-5F9 (antibody, V domains shown, mouse antibody purified from ascites) VH: QVQLKESGPGLVAPSQSLSITCTVSGFSLTTYDISWVRQPPGKGLEWLGVIWTGGGTNYNSSFMSRLSISKDNSKNQVFLKMNSLQVDDTAIYYCERVDYWGQGTTLTVSS VL: DVVMTQTPLSLPVSLGDQASISCRSSQSLVHSNGNTYLHWYLQKPGQSPKLLIYKVSNRFSGVPDRFSGSGSGTAFTFKISRVEAEDLGVYFCSQNTHVPWTFGGGTKLEIK |
